The sequences below were run on K4 kissing-loop RNA reporter (assay: apparent KD of K4 kissing-loop reporter; higher = weaker reporter binding). Settings: Eterna round: R107; input ligand: FMN 200 uM.
Procedure: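 RNA-MaP round R107: designed RNA switches with theophylline, tryptophan, arginine or FMN aptamers are transcribed on-chip within common flanks. They are titrated with a labelled K4 kissing-loop RNA reporter in RNA-MaP buffer (100 mM Tris pH 7.5, 80 mM KCl, 4 mM MgCl2), without ligand or with the indicated ligand. Median apparent KD per design.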
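Further: bound reporter read as fluorescence of individual clusters on recovered sequencing chips by microscopy, with normalized cluster intensities fitted with a binding model.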

“UCCUAGGUUCGUCGGCGAAAGCCCUGCGAAGGAGCGUGCGAAAGUACAGGUAGGUCGCGCAGUGAUGUUGCACCUAGGUAAUAAA [#07 K4 Arginine A Exclusion]” and “ACACUAUCGUCAUAGACGGUAGUGAAAUCACAGGAUAUAAGUGAUGUUAGAAGGGUGAAAGACUGUAUCGAAUAGAUACAGUCAA [FmnA 3 #K4BetweenAptamer #OpenEnded]” are within 1.5-fold of each other in “apparent KD of K4 kissing-loop reporter” value: 905 nM for the first, 1140 nM for the second.

“AAGAGGUAGGCGGCCGCCACUUGUUGUGAACACAUACGAGCCAGUGAUGUUGGUAUUGUGGGCGGAAGGACCGGGCCUACCUGAA [Exclusion - Tryptophan B (Freestyle 20)]” and “AGCUCAGAGUGACUCGAUAAGAGUCACAAACGAGGACCGGUACGGCCGCCACUCGAAAUAAUGAGAGUGAUGUUCUCGCUGAGCA [#SwitchBubble 2 #StaticStem #K4Late]” are within 1.5-fold of each other in “apparent KD of K4 kissing-loop reporter” value: 317 nM for the first, 221 nM for the second.

“UGGGCCGCCUGAGGAUAUAGAGACGAGUGAUGUUCGUGGAUCAGAGCCAGUGAUGUUGGGUUAUUUCUAGAAGGCGGGCGAACUU [Exclusion FMN B GF10]” and “UCGAAGGAUGGAAGGAGCGCUCGUCAGUCCUGCGAGUGAUGUUCGUGGGUAAAUAGUCGCGAGCAGGUAGGUCGCCAUCUUGAGC [Laxe]” are within 1.5-fold of each other in “apparent KD of K4 kissing-loop reporter” value: 116 nM for the first, 139 nM for the second.

Compared with “GGAGGUUGGUGCGAUACCAGACCAGCAGUGAUGUUGCGCCAAAGUGAGUGAUGUUCACCGGUCCCUUGGCAGCGCAUUCCUUUAG [Same State Theophylline B GF 14]”, “UGAUCUGCAGUGAUGUUGCAGUAGCUGUCAGAGGAUAUCAGACUCAUGAGAAGGCUGACAAUGUCUAACAGCACAAUGCUGUUCA [FMN A SS t6]” is 6.2-fold lower in “apparent KD of K4 kissing-loop reporter” value: 964 nM for the first, 156 nM for the second.

First: GCUAUGGUAGGAAGGAGCGCUUACUCGGUCAUAAGAGUGAUGUUCGAGACCGAGUAUUUAUAGCAGGUAGGUCGCCUACUAUAGC [Arginine B K4 6]
Second: GGAUAGGAUAGAGGAUAUGGGUUAGGCAAGAAUAACUUGUCUAGUAAAUCCAUGAGGAGUGAUGUUCCAGAAGGCUGUCCUAUCG [MatMod 4 - Jieux - Exclusion - FMN B]
The “apparent KD of K4 kissing-loop reporter” value of the first is 6.3-fold lower: 68 nM for the first, 429 nM for the second.

Compared with “UGGAGUUGACGAAAAGUCAACUCCUGAGAUACCAGUGACGAAAGUCACCCUUGGCAGCUCACUGCCAGUGAUGUUGGUUCAUAAG [#03 K4 Theophylline A Same State]”, “CCAUCGCUGUUCGAUACCAGUCAUUUUUUAUUUUAUUUUUUUUUUGGAGUGAUGUUCCAAGACCCUUGGCAGCGGAUAGUGAUGG [whbob_SS_Theo_B_th80]” is 1.9-fold lower in “apparent KD of K4 kissing-loop reporter” value: 223 nM for the first, 116 nM for the second.

Compared with “UACUAUAUUCUGUCGUUUUUAUUAGUUUGUCAGGAUAUCGUUUAUUCGAGAAGGGACACUAUCUAGUGAUGUUAGAUAUUUCUUU [JR_Nu3_ExcFMNA_Sub030]”, “UGUCAUUGGUCGGCCGCCACUUCAUGUAGAGUGAUGUUUUGUAGGACGGAUCGAAAGAUCUGUCGAAGGACCGGGACCGAUGACU [FiskerMod 15 - Jieux - Same State - Tryptophan B]” is 3-fold higher in “apparent KD of K4 kissing-loop reporter” value: 77.9 nM for the first, 233 nM for the second.

First: UGUCAUGGAAACAUGAACGUUAAAAUAAAUCGAGGACCGGUACGGCCGCCACUCGUAUAGCGGUCAGUGAUGUUGACUGUAGUAA [KL-SSTryp-A form2 sub8]
Second: UGACUGGACUGAAGGAGCGAGCGAGACAAAGUCUCGAAAAUUCAGUGAUGUUGAUAUAUAACUCAGGUAGGUCGCAGUCUAGUCU [ArgBS 5 #SwitchBubble #StaticStem]
The “apparent KD of K4 kissing-loop reporter” value of the first is 4.5-fold lower: 99.2 nM for the first, 447 nM for the second.

First: UUUAACGAGUGAUGUUCGAAAAGUAAUAGUUAGGAUAUCGUUUUUUCGAGAAGGAACUUCGAAGUGAUACGAAAGUAUCGCUUCG [FMN A 1]
Second: CCUUCUCAUUUCCGUUAUCAUUGCCUUAGGAAGGAUAUCAUUAUUUUGAGAAGGUCCGUGGUCUAUUUUCCGAGUGAUGUUUGGU [theeternabot_exclusion_KL_FMN_A_45]
The “apparent KD of K4 kissing-loop reporter” value of the first is 1.5-fold lower: 180 nM for the first, 273 nM for the second.

Compared with “AAUAAAAUCACGGCCGCCACUGAUAUCCAUAUUAGGAGUGAUGUUCCUAUGACUAUAUAAUUUAACAGGACCGGGUGAAUAUUUA [JR_SSTryptoB_Sub024]”, “GUGGUACAGGCGGCCGCCACUAGUGAUGUUAGUGAUAGAAGAUAUAGUAAAUAUCGGCAUUUAGAUAGGACCGGGCCUGGUGGUG [xxfxcmullin]” is 3.4-fold higher in “apparent KD of K4 kissing-loop reporter” value: 104 nM for the first, 353 nM for the second.

Going from “CACUGGGCGAGUGAUGUUCGCUCACGUGAUACCAGUGCCAUCCAACACCCUUGGCAGCAUGCGGGCAGUGAUGUUGUCCAAAGAA [Exclusion Theophylline A GF9]” to “AUUUAGACGAGUGAUGUUCGUGAUAUUACAGAGGAUAUGCUUAAAAGCAGAAGGCUGUAUUUAUAUUUGUUAUGUAAUUUUAAAA [JR_ExcFMNA_Sub005]”, the “apparent KD of K4 kissing-loop reporter” value falls from 204 nM to 79.9 nM (2.6-fold).

Compared with “UGACUGGAUGGAAGGAGCGCUAAACUCCUAGUGAUGUUAGGGAUACGAGGCAAAGCCUCGAAGCAGGUAGGUCGCCAUCUAGUCU [FiskerMod 21 - Jieux - Same State - Arginine B]”, “UAUUAAUUGUCAGGAUAUCGUAUUCGAGUGAUGUUCGUAUAUCGACGAUAGUCGAUUCUAUCUAUACGAGAAGGGACAUUAUUUA [JR_SSFMNB_Sub007]” is 4.7-fold higher in “apparent KD of K4 kissing-loop reporter” value: 171 nM for the first, 801 nM for the second.

“CAUAGGAAACUAUGUAUCUCUCUUACUGAAGGAGCGCGUGAAAACGCAGGUAGGUCGCAGAAUUUAAAAGAGAGUGAUGUUCUCU [Ex Arginine A K4 8]” and “UUAGUUAGAUUAUUAUUAGCCUACAAUGCUAAGGAUAUCCGAAUUCGGAGAAGGUAGUGAUGUUACUUAAGUAGGCACUAACAUU [AK7 Exc FMN A]” are within 1.5-fold of each other in “apparent KD of K4 kissing-loop reporter” value: 358 nM for the first, 257 nM for the second.

From the supplement of paper PMC9170038
